# Measurements from the DeepSol protein solubility set.
# Experiment: soluble on expression in E. coli; label from the status in PepcDB or PDB records
row,Sequence,soluble on expression in E. coli
1,MSLEVYYPGSVVFPADATLEQKVEMAAKVVPTLQQLAWQQMELTAFLHFGINTFTDSEWGDGKEDPALFNPVELDARQWVRILHEAGFRMVILTAKHHDGFCLWPTATTRHSVASSPWREGKGDVVKEVRAACEEYGMKFGIYLSPWDRNAECYGDSHRYNRFFVSQLTELLTHYGEVHEVWFDGANGEGPNGKRQEYDWETFYDTIRRLQPQAVMAIMGDDVRWVGNERGLGRTTEWSATVLTPGIYSRSKTERNRLGIRENSPDLGSREVLKEAGEIFWYPSEVDVSIRPGWFYHAAEDKKVKSLDKLVDIYFQSVGYNSVLLLNVPPDRRGLIHEADALRLKEWADYLGRAFAHDRVVDSARYAVVQGHAVEEYALESKTHINILMLQEDITKGQRTEAFTVEAWVDGAWQEIGRGTTIGYKRLLRIPAVETDRIRVRIEQEGHHHHHH,not soluble
2,MAMTGVLRPGHAQVRVLNLEEGIHFYRNVLGLVETGRDDQGRVYFKCWDERDHSCYIIREADTAGIDFFGFKVLDKATLEKLDADLQAYGLTTTRIPAGEMLETGERVRFELPSGHLIELYAEKTCVGNGISEVNPAPWNAQREHGIAPIQLDHCLLYGPNIAEVQKIFTEVLGFYLVERVLSPDGDSDMGIWLSCSHKVHDIAFVEYPEKGKLHHCSFLLESWEQVLRAGDIMSMNEVNVDIGPTRHGVTRGCTIYAWDPSGNRFETFMGGYHPYPDYEPLSWTYDNFAQGLDYPQRKLHETFMTVVT,soluble
3,MSSLARGISRRRTEVATQVEAAPTGLRPNAVVGVRLAALADQVGAALAEGPAQRAVTEDRTVTGVTLRAQDVSPGDLFAALTGSTTHGARHVGDAIARGAVAVLTDPAGVAEIAGRAAVPVLVHPAPRGVLGGLAATVYGHPSERLTVIGITGTSGKTTTTYLVEAGLRAAGRVAGLIGTIGIRVGGADLPSALTTPEAPTLQAMLAAMVERGVDTVVMEVSSHALALGRVDGTRFAVGAFTNLSRDHLDFHPSMADYFEAKASLFDPDSALRARTAVVCIDDDAGRAMAARAADAITVSAADRPAHWRATDVAPTDAGGQQFTAIDPAGVGHHIGIRLPGRYNVANCLVALAILDTVGVSPEQAVPGLREIRVPGRLEQIDRGQGFLALVDYAHKPEALRSVLTTLAHPDRRLAVVFGAGGDRDPGKRAPMGRIAAQLADLVVVTDDNPRDEDPTAIRREILAGAAEVGGDAQVVEIADRRDAIRHAVAWARPGDVVLIAGKGHETGQRGGGRVRPFDDRVELAAALEALERRA,soluble
4,MLDGLTYAYGDLIEKVPDFEIIQRKSPKSGKVALVSGGGSGHKPAHAGFVGEGMLSAAVCGAIFTSPTPDQIYEAIKSADEGAGVLLIIKNYLGDVMNFEMAREMAEMEEIKVEQIIVDDDIAVENSLYTQGRRGVAGTVLVHKILGAAAHQEASLDEIKDLADKVVKNIKTIGLALSAATVPEVGKPGFVLDDNEIEYGVGIHSEPGYRREKMKTSYELATELVGKLKEEFKFEAGQKYGILVNGMGATPLMEQFIFMNDVAKLLTEENIEILFKKVGNYMTSIDMAGLSLTMIKLEDDQWLKNLNEDVKTISWGLEHHHHHH,not soluble
5,MSLWKNFNFVTKYFTKRRQRYITKTIAMNQQEFQLREITYQDIKDLLAIEREVYAGELPWTMSAFMAELGSKAPHLYLLAAINGKTVGFIGCRIQGTDAHITNVAVHTAYQGLGLGRSLIEETRIFAKKNRCETLSLEVRMSNVKAQRLYRKIGFVSQTVKKGYYDENNEDALEMIIDLKEEEGHHHHHH,soluble
6,MAHHHHHHMGTLEAQTQGPGSMNVLVIGSGGREHSMLHHIRKSTLLNKLFIAPGREGMSGLADIIDIDINSTIEVIQVCKKEKIELVVIGPETPLMNGLSDALTEEGILVFGPSKAAARLESSKGFTKELCMRYGIPTAKYGYFVDTNSAYKFIDKHKLPLVVKADGLAQGKGTVICHTHEEAYNAVDAMLVHHKFGEAGCAIIIEEFLEGKEISFFTLVDGSNPVILGVAQDYKTIGDNNKGPNTGGMGSYSKPNIITQEMEHIIIQKIIYPTIKAMFNMNIQFRGLLFAGIIIKKNEPKLLEYNVRFGDPETQSILPRLNSDFLKLLSLTAKGKLGNESVELSKKAALCVVVASRGYPGEYKKNSIINGIENIEKLPNVQLLHAGTRREGNNWVSDSGRVINVVAQGENLASAKHQAYAALDLLDWPDGIYRYDIGSCAL,soluble
7,MTFQNKKILVAGLGGTGISMIAYLRKNGAEVAAYDAELKAERVAQIGKMFDGLVFYTGRLKDALDNGFDILALSPGISERQPDIEAFKQNGGRVL,not soluble
8,MRLFKRYTPSMIAKHISRLFKGRIYIYGVGRFEFDNGKLILPEKAEQRHFRAVKEINQEIMKLRCAYALEHHHHHH,not soluble
9,MSLSNSLLPPNASGLERDIEQVIVQSTDLPIRIKDLWNPYSCHLSLLPWLAWALSVDEWDDRWPEHIKRQVVQDSFDVHRFKGTPYAVQKALDSLNIKTHLREWWEPDGSQEPGTMTVVALINENLTDDDNGLITEAMLEQVTRVIHTAKRGVIHFDVELGISLDETLGFSGAIGPSIAEIDFSSDFLPIVPEKGSADMAFSAALYGIGSADFLADMSGVVPDEGHHHHHH,not soluble
10,MCMTNSMSDALKTLEVFRPEVEEIDEREVKLSVAPDRVIAVLETLKSLGYSHLSLMTCIDWIEDSQFELVYILFSWKDGGKFIVTTRIDRNNPQFVTVKEIWPVARFYEREIHEFFGVKFSGNEDMKPLFLELWDDKPPLRKDFDPLEYSRRKFPGREYQKDVIDEAKKIFRGEING,soluble
11,MGSDKIHHHHHHMDKIIGLGNALIDVLATLKDDTLLDELELPKGSMQLIDDAKLQQINTKFSQMKTHLATGGSAGNAILGLACLGAGTGFIGKVGNDHYGDFFRKNLQKNNIEDNLLTSEQLPSGVASTFISQDGERTFGTYLGAAASLKAEDLTLEMFKGYAYLFIEGYLVQDHEMILHAIELAKEAGLQICLDMASYNIVENDLEFFSLLINKYVDIVFANEEEAKAFTGEEPEEALRVIAKKCSIAIVKVGANGSYIRKGTEEIKVSAIPVEKVLDTTGAGDYFAAGFLYGLTCGYSLEKCAKIGSILSGNVIQVIGTTISPERWDEIKLNINKVLAE,not soluble
12,MGSDKIHHHHHHTSCIEDEKDYSQIIETRVANCETSKDFSVPVKEGYTTFVTSGEDTLAMANEPITIRIPKNATISTRAEGDGINISYTILDEGSETTYAKVWQAIMFEDTQNGDYDYNDLIIHVKNTASNHAYQHPTETWQTIEIQPIALGSTKTIKLGCILSDGSTHMISDDVRTDLFGGRQGFINTVNDNDPIRYKLASTNIKNYAMPKKEKTSAAWVAWFIEVDGKRMYAASSDIDYKSYDMVNKENMPYGLAVSNGNGTFSYPQEKNSLFETYPGFSDWINGKVSSIGSFQKELVYKYCSGGIIGEDGKSHKIWDYLDLN,not soluble
13,DMPAEIVNLIGKMRFHTVYGQNLLQHSREVAMLAGLMAAELKLDAKQAKRAGLLHDIGLVLPETEMPHALAGMEFLKKFNMSPVVLNAIGAHHGEVEKASPIADLVDAANIVSLSRPGARGAVTAEGNVKRLESLEEIARTFPGVIKTYALQAGREIRVIVEGDNVSD,not soluble
14,MSEKGFSGGCQCGAVRFHAGKLGRPSICHCRMCQKHFGNFFGALVTADQAHLAWTRGQPTLFRSSARIHRGFCNKCGTPLTYHYPGGVEIAIGAFDHPEQIEPQAQVNIHKRMPWIEQLFSKPAIEQSVDEAEITSYQHPDHDTATWPPEGP,not soluble
15,MSLVAFHEVRFPLRLALGVSGGPVRRTDIVNLSNGRENRNQRWRNARRAYDAGSGIRSVADLYEVLAFFEARRGEMYGFRFRDPVDFKSCPPGETPAATDQRIGTGDGVVTGFQLVKTYADAGGSFSRRIDKPVEGSVIVSVEGVKAAPTDLSVDHATGMVIFRAGRAPPTGAVIRAGFEFDVPVRFAIDRIDINVTAFEAGRIPSIPLMEILPEGHHHHHH,soluble
16,MKPVSGSFSGYHPMATVSEQPVAKPRASESPQSESIEERPACLAPVAGAGQPLPGASSSLSAYLLLRRLDHRPVSQEGINALTPADEAVVEARNALPFGRGNVGVDAQKTDLESSIRTRSVMRLTRDAEAAGHTPMRGVDADMNWNVLVAMSGRIFGAGNCREHARIASFAYGGLAQESGRSSEEKIHLATKAGVDHVWVETDHPDADSSPMVIDPWANGSAILAEDSRFAKDRSAVTRTDTFDLSLAAEAGQIAKATAEEALAHTQGRLQQRLASERPDAVPLESGRYREEVSVLDDTFARRVGQKVNTADPRGMLNVELEAVGVAMSLGGEGVKPLTQEASQIVEKAKKFASPGGMPRDA,not soluble
17,MDLIGLRIRNIRKIKQLTLKEAAKGIISVPYLANIENGVKVASFETLMHIAKRLEIPEEALLIGNEDLNKELLQELKQIFDLLVFSNTKEAGDRLDQIAANVDLLCESPVIELSFYWLQAGFYYKTWEFSKAREIERKYLNSNEKRVVESFPPDLLSYYYYGQAVKHSHATCDYQLAVEYWEKSIDLTDKAAFQVVFQVGLCINYICLNNYEPALKHIECAWNLIKRFPSKDQERITAILYLYGYINFQIGFMTEAKRKFEEVLVFFNMYPEAKTMYSFLVRFKLAEIERVEGNHELFDEKIVCLYEELMAHEASEIGFNNNDYLVITELMVIFAEQGSVLEASNLLAIINKVTEQVMEINFFVTYTETLLLYHQNKQSSYEKKMLDLLKKIDESNDPALIERVKKHASKHFADSTKYKMAYNILA,not soluble
18,MGSDKIHHHHHHMMIQYPKLTISDRLNQHRERLPLADLQETFKESWTVNEKWQVTFAITDSLAYEQAIKLLDVQNIVHYDGQSYVIIQCTKTVSGGVSVYEVTASHLFYRLANNARQNNVKTGTLTYGLSEAVNFMLDNNDQGLTAKFIGDFPRIKIENLGNSSFNKFLQDYTSKFDASYVIDNQQIIFYSATYLKHQPVIDTLFYQHDVENVKLSLDTTSLANEVRCLGKPIDKSSGNNDSQTKYQVDFTYRDDASIQKWGLQRGDPLSDERFTDQGSMTEYARQTVQAQPIATLTTTAWNVTIKQCETVKLVMPNLDWQTTVALNGYERNPFNQFSLPTITFDNASLAVNDINVAMFKHITNAHNHVGKTMVQLMAALGDIQNGDLITDEDTIDKLNELGGIS,not soluble
19,MGSDKIHHHHHHMNLWDKKAKTYARYQNTLNTIQKQTFEYLQNLKISFQDKSIIDIGCGTGVWTLHLAKEAKEILALDSANAMLEILQEDAKKLNLNNIKCKNLSFETWMQNNPNVKFDLAFLSMSPALQNEKDYTNFLNLAKIKIYLGWADYRKSDFLDPIFKYFNTEFKGFYKKDLENYLLEKNIFFHKIVFDETRKVQRTKEEAIENALWHLSMNKITASKETVSSFVENNITETIESKIKLLIINNL,not soluble
20,MWDTSKDYRLLVAEKSVELFIRTIEGAKFRGQWDKKRSIQLAKEMIPDIQALRYSYIDPEELVDTPQMKDLKEKAKGIIEALGGEDWHHKFLSQASREDREKVEEQVARIKFFLNTILNLDRRLKLGKINDPVIAVDIVVGEVMSVGKHPSADRLLVTNVNIGERAVTVVTNDLTVKEGNRVAVALLPPRNFFGIVSEGMFLGAGEGVLKNVKGEIGGLPKGIPLEALNETRNAVEAFLKG,soluble
21,MSLRYLRFLTAGESHGKGLTAILEGIPANLPLSEEEINHELRRRQRGYGRGGRMKIEKDTAEILSGVRFGKTLGSPIALFIRNRDWENWKEKMAIEGEPSPSVVPFTRPRPGHADLSGGIKYNQRDLRNILERASARETAARVAVGAVCKKFLSEFGIKIGSFVVSIGQKEVEELKDKSYFANPEKLLSYHEKAEDSELRIPFPEKDEEFKTYIDEVKEKGESLGGVFEVFALNVPPGLGSHIQWDRRIDGRIAQAMMSIQAIKGVEIGLGFEAARRFGSQVHDEIGWSEGKGYFRHSNNLGGTEGGITNGMPIVVRVAMKPIPTLKNPLRSVDIETKEEMKAGKERTDIVAVPAASVVGEAMLAIVLADALLEKLGGDFMEEVKKRFEDYVNHVKSF,soluble
